# From patent US20260117259A1
# Values joined by “and” are separate entries in the source; they are usually repeats but may differ in a detail not shown here. Identical values can stand only once. Like-named read-outs stand apart in the source and are kept apart here.
# Key:
# [1] = molecular target: CRF250-SOSIP, soluble HIV-1 envelope glycoprotein trimer (SOSIP.v7 based on the CRF250 HIV-1 isolate) (HIV-1); experiment: flow cytometry of Jeko-1 cells edited at the native heavy and kappa loci, double staining with CRF250 SOSIP-APC and CRF250 SOSIP-PE
# [2] = molecular target: CRF250-SOSIP, soluble HIV-1 envelope glycoprotein trimer (SOSIP.v7 based on the CRF250 HIV-1 isolate) (HIV-1); experiment: flow cytometry of edited Jeko-1 cells, HDRT by AAV, double staining with CRF250 SOSIP-APC and CRF250 SOSIP-PE
# [3] = molecular target: CRF250-SOSIP, soluble HIV-1 envelope glycoprotein trimer (SOSIP.v7 based on the CRF250 HIV-1 isolate) (HIV-1); experiment: flow cytometry of edited Jeko-1 cells, HDRT as dsDNA, double staining with CRF250 SOSIP-APC and CRF250 SOSIP-PE
# [4] = molecular target: CRF250-SOSIP, soluble HIV-1 envelope glycoprotein trimer (SOSIP.v7 based on the CRF250 HIV-1 isolate) (HIV-1); experiment: flow cytometry of primary murine B cells edited at native loci, HDRT as dsDNA, double staining with CRF250 SOSIP-APC and CRF250 SOSIP-PE
# [5] = molecular target: CRF250-SOSIP, soluble HIV-1 envelope glycoprotein trimer (SOSIP.v7 based on the CRF250 HIV-1 isolate) (HIV-1); experiment: flow cytometry of primary murine B cells edited at native loci, HDRT by AAV, double staining with CRF250 SOSIP-APC and CRF250 SOSIP-PE
# [6] = molecular target: 16055-ConM-v8.1ds SOSIP trimer (HIV-1); experiment: flow cytometry, primary murine B cells edited in the HCDR3, labeled 16055-ConM-v8.1ds SOSIP against surface IgM
# SOSIP = experiment: flow cytometry, APC-labeled SOSIP trimer against anti-IgM
# [7] = molecular target: CRF250-SOSIP, soluble HIV-1 envelope glycoprotein trimer (SOSIP.v7 based on the CRF250 HIV-1 isolate) (HIV-1); experiment: flow cytometry of control primary murine B cells (RNP without HDRT), upper row (IgH gRNAs), double staining with CRF250 SOSIP-APC and CRF250 SOSIP-PE
# [8] = molecular target: CRF250-SOSIP, soluble HIV-1 envelope glycoprotein trimer (SOSIP.v7 based on the CRF250 HIV-1 isolate) (HIV-1); experiment: flow cytometry of control primary murine B cells (RNP without HDRT), double staining with CRF250 SOSIP-APC and CRF250 SOSIP-PE
# [9] = molecular target: CRF250-SOSIP, soluble HIV-1 envelope glycoprotein trimer (SOSIP.v7 based on the CRF250 HIV-1 isolate) (HIV-1); experiment: flow cytometry of control Jeko-1 cells (RNP without HDRT), double staining with CRF250 SOSIP-APC and CRF250 SOSIP-PE
# [10] = molecular target: CRF250-SOSIP, soluble HIV-1 envelope glycoprotein trimer (SOSIP.v7 based on the CRF250 HIV-1 isolate) (HIV-1); experiment: flow cytometry of control primary murine B cells (RNP of the intron approach without HDRT), double staining with CRF250 SOSIP-APC and CRF250 SOSIP-PE
# [11] = molecular target: CRF250-SOSIP, soluble HIV-1 envelope glycoprotein trimer (SOSIP.v7 based on the CRF250 HIV-1 isolate) (HIV-1); experiment: flow cytometry of control Jeko-1 cells (RNP without HDRT), double staining with CRF250 SOSIP-APC and CRF250 SOSIP-PE; remark: listed apart in the source
# [12] = molecular target: CRF250-SOSIP, soluble HIV-1 envelope glycoprotein trimer (SOSIP.v7 based on the CRF250 HIV-1 isolate) (HIV-1); experiment: flow cytometry of control primary murine B cells (RNP without HDRT), lower rows (IgK gRNAs), double staining with CRF250 SOSIP-APC and CRF250 SOSIP-PE
# [13] = molecular target: CRF250-SOSIP, soluble HIV-1 envelope glycoprotein trimer (SOSIP.v7 based on the CRF250 HIV-1 isolate) (HIV-1); experiment: flow cytometry of control primary murine B cells (RNP without HDRT), double staining with CRF250 SOSIP-APC and CRF250 SOSIP-FITC
# [14] = molecular target: CRF250-SOSIP, soluble HIV-1 envelope glycoprotein trimer (SOSIP.v7 based on the CRF250 HIV-1 isolate) (HIV-1)
# [15] = molecular target: CRF250-SOSIP, soluble HIV-1 envelope glycoprotein trimer (SOSIP.v7 based on the CRF250 HIV-1 isolate) (HIV-1); experiment: flow cytometry of Jeko-1 cells edited at the native heavy-chain locus, double staining with CRF250 SOSIP-APC and CRF250 SOSIP-PE
# [16] = molecular target: CRF250-SOSIP, soluble HIV-1 envelope glycoprotein trimer (SOSIP.v7 based on the CRF250 HIV-1 isolate) (HIV-1); experiment: flow cytometry of Jeko-1 cells edited with gRNA targeting JH6, staining with CRF250 SOSIP-APC against anti-IgM
# [17] = molecular target: CRF250-SOSIP, soluble HIV-1 envelope glycoprotein trimer (SOSIP.v7 based on the CRF250 HIV-1 isolate) (HIV-1); remark: listed apart in the source
substance,measurement,setting,value
10-1074 heavy and light chain variable genes introduced at the native heavy and kappa loci of Jeko-1 (antibody),% of cells in the SOSIP-positive gate,[1],3.09%
same,% of cells in the SOSIP-positive gate,[2],11.1%
same,% of cells in the SOSIP-positive gate,[3],3.05%
10-1074 heavy and light chain variable genes introduced at the native heavy and kappa loci of primar (antibody),% of cells in the SOSIP-positive gate,[4],0.95%
same,% of cells in the SOSIP-positive gate,[5],2.38%
B-cell receptors of primary murine B cells edited to express the HCDR3 of the predicted unmutated common ancestor of the VRC26 family (VRC26-UCA) (antibody),% of cells in the SOSIP gate,[6],2.26%
B-cell receptors of primary murine B cells edited to express the PG9 HCDR3 (antibody),% of cells in the SOSIP gate,[6],1.49%
B-cell receptors of primary murine B cells edited to express the PG16 HCDR3 (antibody),% of cells in the SOSIP gate,[6],1.02%
Negative control (antibody),% of cells above the SOSIP gate line,SOSIP,0.12%
No HDRT (antibody),% of cells in the SOSIP-positive gate,[7],0.44%
same,% of cells in the SOSIP-positive gate,[8],0.34%
same,% of cells in the SOSIP-positive gate,[9],0.12%
same,% of cells in the SOSIP-positive gate,[10],0.58%
same,% of cells in the SOSIP-positive gate,[11],0.24%
same,% of cells in the SOSIP-positive gate,[12],0.45%
same,% of cells in the SOSIP-positive gate,[13],0.17%
VRC26.25 heavy-chain variable gene introduced at the native heavy-chain locus of Jeko-1 cells (B-cell receptor on the cell surface) (antibody),% of cells in the SOSIP-positive gate,[14],4.43% and 1.12%
same,% of cells in the SOSIP-positive gate,[15],7.12%
same,% of cells in the SOSIP-positive gate,[16],5.24%
same,% of cells in the SOSIP-positive gate,[2],37.8%
same,% of cells in the SOSIP-positive gate,[3],7.12%
VRC26.25-y heavy and light chain variable genes introduced at the native loci of primary murine B cells (B-cell receptor) (antibody),% of cells in the SOSIP-positive gate,[4],1.78%
same,% of cells in the SOSIP-positive gate,[5],7.55%
VRC26.25-y heavy chain alone introduced into primary murine B cells (B-cell receptor with endogenous murine light chains) (antibody),% of cells in the SOSIP-positive gate,[17],1.59% and 1.47% and 1%
